Measured values as given in patent US20100130424A1 (Janssen / Centocor, published 2010).
Where two headings read alike, the source gives them in different places. No end group written: not given here.

T1: human CRH receptor type 2 (human, UniProt Q13324 1-411)
T1 sequence (looked up): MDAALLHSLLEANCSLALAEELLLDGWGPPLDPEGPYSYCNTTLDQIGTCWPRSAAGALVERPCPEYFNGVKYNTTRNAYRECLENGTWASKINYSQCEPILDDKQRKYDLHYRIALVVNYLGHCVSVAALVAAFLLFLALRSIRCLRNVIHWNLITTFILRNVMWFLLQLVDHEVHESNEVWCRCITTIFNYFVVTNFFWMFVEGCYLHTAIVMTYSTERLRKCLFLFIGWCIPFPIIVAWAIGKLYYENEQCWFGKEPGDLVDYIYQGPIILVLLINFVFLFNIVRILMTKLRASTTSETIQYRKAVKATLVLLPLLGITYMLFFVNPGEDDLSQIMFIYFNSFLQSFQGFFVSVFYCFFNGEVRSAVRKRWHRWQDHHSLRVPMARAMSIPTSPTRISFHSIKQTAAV


Tests used:
[1] = target: T1, human CRH receptor type 2; assay: cell-based or functional assay
[2] = target: T1, human CRH receptor type 2; assay: inferred from the test as antagonist at 10 µM, cAMP assay on h-CRHR2 SK-N-MC cells
[3] = target: T1, human CRH receptor type 2; assay: cell-based or functional assay; remark: listed apart in the source

Binder | Log DR against h-SCP, cAMP [1] [log10 ratio] | pA50, cAMP [1] | KA (receptor affinity, in µM) [2] [µM] | pA50, cAMP [3] | αmax, cAMP [3]
TKFTLCLDVPTNIMNLLFNIAKAKNLRAQAAANAHLMAQI-NH2 [Cys-variant CRHR2 peptide agonist, SEQ ID NO: 7] | 2.08 | 7.6 -log M | – | – | –
DVPTNIMNLLFNIAKAKNLRAQAAANAHLMAQI-NH2 [CRHR2 peptide agonist with shortened amino acid sequence, 33aa, SEQ ID NO: 112] | – | – | > 10 | – | –
CKFTLSLDVPTNIMNLLFNIAKAKNLRAQAAANAHLMAQI (NES-PEG (about 20 kDa) on Cys 1; C-terminal amide) [Pegylated Cys-variant CRHR2 peptide agonist (NES linker, PEG about 20 kDa), SEQ ID NO: 55] | ~1.61 | ~7.93 -log M | – | – | –
TKFCLSLDVPTNIMNLLFNIAKAKNLRAQAAANAHLMAQI (NES-PEG (about 20 kDa) on Cys 4; C-terminal amide) [Pegylated Cys-variant CRHR2 peptide agonist (NES linker, PEG about 20 kDa), SEQ ID NO: 58] | ~2.4 | ~7.14 -log M | – | – | –
TKFTLSLDVPCNIMNLLFNIAKAKNLRAQAAANAHLMAQI (NES-PEG (about 20 kDa) on Cys 11; C-terminal amide) [Pegylated Cys-variant CRHR2 peptide agonist (NES linker, PEG about 20 kDa), SEQ ID NO: 65] | ~2.75 | ~6.82 -log M | – | – | –
TKCTLSLDVPTNIMNLLFNIAKAKNLRAQAAANAHLMAQI (NES-PEG (about 20 kDa) on Cys 3; C-terminal amide) [Pegylated Cys-variant CRHR2 peptide agonist (NES linker, PEG about 20 kDa), SEQ ID NO: 57] | ~1.9 | ~7.64 -log M | – | – | –
TKFTCSLDVPTNIMNLLFNIAKAKNLRAQAAANAHLMAQI (NES-PEG (about 20 kDa) on Cys 5; C-terminal amide) [Pegylated Cys-variant CRHR2 peptide agonist (NES linker, PEG about 20 kDa), SEQ ID NO: 59] | ~2.32 | ~7.22 -log M | – | – | –

More lines, now with the values ahead:

Log DR against h-SCP, cAMP [1] [log10 ratio] | pA50, cAMP [1] | KA (receptor affinity, in µM) [2] [µM] | pA50, cAMP [3] | αmax, cAMP [3] | Binder
2.86 | ~6.82 -log M | – | – | – | TKFTLSCDVPTNIMNLLFNIAKAKNLRAQAAANAHLMAQI-NH2 [Cys-variant CRHR2 peptide agonist, SEQ ID NO: 8]
1.03 | 8.65 -log M | – | – | – | TKCTLSLDVPTNIMNLLFNIAKAKNLRAQAAANAHLMAQI-NH2 [Cys-variant CRHR2 peptide agonist, SEQ ID NO: 4]
– | – | – | 9.25 -log M | 111 % of the maximum response to h-SCP | KFTLSLDVPTNIMNLLFNIAKAKNLRAQAAANAHLMAQI-NH2 [CRHR2 peptide agonist with shortened amino acid sequence, 39aa, SEQ ID NO: 107]
~2.34 | ~7.2 -log M | – | – | – | TCFTLSLDVPTNIMNLLFNIAKAKNLRAQAAANAHLMAQI (NES-PEG (about 20 kDa) on Cys 2; C-terminal amide) [Pegylated Cys-variant CRHR2 peptide agonist (NES linker, PEG about 20 kDa), SEQ ID NO: 56]
~2.59 | ~6.98 -log M | – | – | – | TKFTLSLDVCTNIMNLLFNIAKAKNLRAQAAANAHLMAQI (NES-PEG (about 20 kDa) on Cys 10; C-terminal amide) [Pegylated Cys-variant CRHR2 peptide agonist (NES linker, PEG about 20 kDa), SEQ ID NO: 64]
> 3.22 | ~6.32 -log M | – | – | – | TKFTLCLDVPTNIMNLLFNIAKAKNLRAQAAANAHLMAQI (NES-PEG (about 20 kDa) on Cys 6; C-terminal amide) [Pegylated Cys-variant CRHR2 peptide agonist (NES linker, PEG about 20 kDa), SEQ ID NO: 60]
> 3.32 | ~6.22 -log M | – | – | – | TKFTLSCDVPTNIMNLLFNIAKAKNLRAQAAANAHLMAQI (NES-PEG (about 20 kDa) on Cys 7; C-terminal amide) [Pegylated Cys-variant CRHR2 peptide agonist (NES linker, PEG about 20 kDa), SEQ ID NO: 61]
> 3.48 | ~6.06 -log M | – | – | – | TKFTLSLCVPTNIMNLLFNIAKAKNLRAQAAANAHLMAQI (NES-PEG (about 20 kDa) on Cys 8; C-terminal amide) [Pegylated Cys-variant CRHR2 peptide agonist (NES linker, PEG about 20 kDa), SEQ ID NO: 62]
~2.12 | ~7.45 -log M | – | – | – | TKFTLSLDCPTNIMNLLFNIAKAKNLRAQAAANAHLMAQI (NES-PEG (about 20 kDa) on Cys 9; C-terminal amide) [Pegylated Cys-variant CRHR2 peptide agonist (NES linker, PEG about 20 kDa), SEQ ID NO: 63]
